We go through three molecules from patent US7557181B2, “Pan-HER antagonists and methods of use” (Molecular Logix, Inc., priority 2005, dated 2009).

Holding throughout (format): cell-based
For experiment [1], the system named is MCF-7 cells (human breast cancer cell line that express HER2 and HER3). As to the kind of experiment: MCF-7 cell proliferation stimulation assay (WST-1). Particulars: serum-free, 72 hours, FIG. 4. The procedure:
MCF-7 cells were obtained from the American Type Culture Collection (ATCC). Stock cultures of MCF-7 were maintained in Eagle's MEM supplemented with 1% ITS-X (Invitrogen) and 10% fetal bovine serum. For proliferation assays, MCF-7 cells were transferred to serum-free medium (SFM) for 24 hours and then trypsinized and suspended at 1E5 cells/mL in SFM. Fifty microliters of cell suspension (5000 cells) were plated per well in 96 well microtiter plates. Serial dilutions of HER ligands or mutant proteins were prepared at twice the final concentration in SFM and 50 ul was added to wells, bringing the final volume to 100 ul at the desired final concentration. Plates were incubated for 72 hours at 37 C in a humidified 5% CO2 atmosphere. Cell proliferation was determined by addition of 10 ul/well of WST-1 Cell Proliferation Reagent (Roche Applied Sciences, Indianapolis, Ind.) for the last three hours of the proliferation period.

The target of a further experiment is T1, EGFR (Homo sapiens, UniProt P00533).
T1 construct: Autophosphorylation of EGFR in A431 cells, an epithelial cancer cell line; endogenous in cells; host or cells: A431 cells
As to the kind of experiment: Autophosphorylation of EGFR in A431 cells. As to conditions: epithelial cancer cell line, FIG. 2.

Experiment [2] deals with HER5 cells (mouse fibroblast cells that overexpress human EGFR). The experiment is described as follows: HER5 cell proliferation stimulation assay (WST-1). Particulars: serum-free, 48 hour proliferation period, FIG. 3. The procedure: Hung (MD Anderson Cancer Center). Stock cultures of HER5 were propagated in D-MEM/F12 medium containing 10% fetal bovine serum, 100 units/ml of penicillin and 100 ug/ml of streptomycin in a water-jacketed incubator at 37° C. in a humidified 5% CO2 atmosphere. For HER5 proliferation assays, the cells were changed into DMEM/F12 without serum for 24 hours. Cells were then trypsinized and suspended at 1E5 cells/ml. […] Fifty microliters of cell suspension (5000 cells) were added to appropriate wells bringing the total volume to 100 ul at the desired concentrations. Plates were incubated for a 48 hour proliferation period. Cell proliferation was determined by addition of 10 ul/well of WST-1 Cell Proliferation Reagent (Roche Applied Sciences, Indianapolis, Ind.) for the last three hours of the proliferation period. WST-1 is a tetrazolium salt that is cleaved to formazan dye by mitochondrial dehydrogenases in viable cells. The amount of formazan was measured at 450 nm using a microplate reader (Dynex Technologies) with MRX Revelation software.

B1: BiRegulin: chimeric EGF homolog, amino terminal residues (NSDSE) of EGF replaced with corresponding residues of HRGβ1 (SHLVK) (protein)
chain: HHHHHHIEGRSHLVKCPLSHDGYCLHDGVCMYIEALDKYACNCVVGYIGERCQYRDLKWWELR
For B1, the “stimulation of MCF-7 cells (proliferation)” value (shortened to “stimulation of MCF-7 cells”) in experiment [1] is recorded as “can be stimulated”. Besides, in the experiment with EGFR, the “stimulation of autophosphorylation of EGFR” value is on record as “stimulated”. Further, in experiment [2], the “stimulation of HER5 cells (proliferation)” value is “can be stimulated”.

B2: BiRV35EG39L: BiRegulin with glycine 39 replaced by leucine and valine 35 replaced with glutamate (protein)
chain: HHHHHHIEGRSHLVKCPLSHDGYCLHDGVCMYIEALDKYACNCVEGYILERCQYRDLKWWELR
As for B2, in experiment [1], the “stimulation of MCF-7 cells” value is given as “Neither cell line is stimulated”. Further, the “stimulation of autophosphorylation of EGFR” value in the experiment with EGFR was “does not stimulate autophosphorylation”. For the same molecule, the “stimulation of HER5 cells (proliferation)” value in experiment [2] is “Neither cell line is stimulated”.

B3: heregulin (protein)
chain: SHLVKCAEKEKTFCVNGGECFMVKDLSNPSRYLCKCPNEFTGDRCQNYVMASFYKHLGIEFMEAEELY
Regarding B3, in experiment [1], the “stimulation of MCF-7 cells” value is listed as “can be stimulated”.
